The target in test [1] is T1, human CCR8 (human, UniProt P51685 1-355). Put plainly: cell-based or functional assay.
The target in test [2] is T1, human CCR8. Put plainly: cell-based or functional assay. This is another data set of the same source.
Test [3] concerns the target T1, human CCR8. In words: cell-based or functional assay. The source holds these as a separate data set.
Test [4] addresses T1, human CCR8. In words: flow cytometry on 293F-hCCR8 cells.
Test [5] deals with T1, human CCR8. In words: flow cytometry, competition with 10 nM AF647-human CCL1 on 293F-hCCR8 cells.

Where two headings read alike, the source gives them in different places.

The text below walks through data of patent EP4624492A1 (Shanghai Hongcheng Biopharmaceutical Co., Ltd., dated 2025).

T1 sequence (P51685 whole entry): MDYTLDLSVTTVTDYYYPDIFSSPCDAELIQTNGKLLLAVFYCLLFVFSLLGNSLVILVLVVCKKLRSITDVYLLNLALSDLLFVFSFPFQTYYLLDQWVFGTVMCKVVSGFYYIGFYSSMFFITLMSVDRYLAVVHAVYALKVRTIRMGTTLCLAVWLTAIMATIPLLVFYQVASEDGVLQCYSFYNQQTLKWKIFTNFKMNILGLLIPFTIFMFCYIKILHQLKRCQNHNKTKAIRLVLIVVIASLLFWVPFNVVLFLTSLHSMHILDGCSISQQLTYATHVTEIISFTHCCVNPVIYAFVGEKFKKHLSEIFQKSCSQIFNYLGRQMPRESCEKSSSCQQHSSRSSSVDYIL

B1: 559E1B10_hzH1L1_DE (antibody, human IgG1, kappa)
heavy: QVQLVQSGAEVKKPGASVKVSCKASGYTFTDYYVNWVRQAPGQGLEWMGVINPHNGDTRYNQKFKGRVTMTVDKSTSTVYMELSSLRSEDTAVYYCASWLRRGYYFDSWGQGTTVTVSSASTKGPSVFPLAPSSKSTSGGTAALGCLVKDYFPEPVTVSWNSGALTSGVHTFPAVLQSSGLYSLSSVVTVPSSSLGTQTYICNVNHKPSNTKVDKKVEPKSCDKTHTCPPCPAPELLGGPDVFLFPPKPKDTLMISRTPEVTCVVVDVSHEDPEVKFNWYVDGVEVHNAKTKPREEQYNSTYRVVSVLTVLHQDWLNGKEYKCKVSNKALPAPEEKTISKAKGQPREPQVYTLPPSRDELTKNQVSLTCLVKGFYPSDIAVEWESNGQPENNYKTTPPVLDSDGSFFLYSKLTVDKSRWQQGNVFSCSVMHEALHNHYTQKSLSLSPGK
light: EIVLTQSPATLSLSPGERATLSCRASQSISDYLHWYQQKPGQAPRLLLKYVSQSISGIPARFSGSGSGTDFTLTISSLEPEDFAVYYCQNGHSFPLTFGGGTKVEIKRTVAAPSVFIFPPSDEQLKSGTASVVCLLNNFYPREAKVQWKVDNALQSGNSQESVTEQDSKDSTYSLSSTLTLSKADYEKHKVYACEVTHQGLSSPVTKSFNRGEC
Regarding B1, the “EC50 of activation of Jurkat-human FcγRIIIa(158V)-NFAT with 293F-hCCR8 target cells” value (“EC50 … with 293F-hCCR8 target cells” for short) with human CCR8 [1] was found to be 0.0006 µg/mL.

B2: 559E1B10_hzH1L1_VLPLL (antibody, human IgG1, kappa)
heavy: QVQLVQSGAEVKKPGASVKVSCKASGYTFTDYYVNWVRQAPGQGLEWMGVINPHNGDTRYNQKFKGRVTMTVDKSTSTVYMELSSLRSEDTAVYYCASWLRRGYYFDSWGQGTTVTVSSASTKGPSVFPLAPSSKSTSGGTAALGCLVKDYFPEPVTVSWNSGALTSGVHTFPAVLQSSGLYSLSSVVTVPSSSLGTQTYICNVNHKPSNTKVDKKVEPKSCDKTHTCPPCPAPELVGGPSVFLLPPKPKDTLMISRTPEVTCVVVDVSHEDPEVKFNWYVDGVEVHNAKTKPPEEQYNSTLRVVSVLTVLHQDWLNGKEYKCKVSNKALPAPIEKTISKAKGQPREPQVYTLPPSRDELTKNQVSLTCLVKGFYPSDIAVEWESNGQPENNYKTTPLVLDSDGSFFLYSKLTVDKSRWQQGNVFSCSVMHEALHNHYTQKSLSLSPGK
light: EIVLTQSPATLSLSPGERATLSCRASQSISDYLHWYQQKPGQAPRLLLKYVSQSISGIPARFSGSGSGTDFTLTISSLEPEDFAVYYCQNGHSFPLTFGGGTKVEIKRTVAAPSVFIFPPSDEQLKSGTASVVCLLNNFYPREAKVQWKVDNALQSGNSQESVTEQDSKDSTYSLSSTLTLSKADYEKHKVYACEVTHQGLSSPVTKSFNRGEC
On to B2, for which the “EC50 … with 293F-hCCR8 target cells” value with human CCR8 [1] worked out at 0.0014 µg/mL.

B3: 563E10E12_hzH2L1_hIgG1 (antibody)
heavy: not shown
light: DVVMTQSPLSLPVTPGEPASISCRSSKSLLHSNGITYLFWYLQKPGQSPQLLIYQMSNLASGVPDRFSGSGSGTDFTLKISRVEAEDVGVYYCAQSLELPLTFGGGTKVEIKRTVAAPSVFIFPPSDEQLKSGTASVVCLLNNFYPREAKVQWKVDNALQSGNSQESVTEQDSKDSTYSLSSTLTLSKADYEKHKVYACEVTHQGLSSPVTKSFNRGEC
notes: Humanized, hIgG1/K
A word on the EC50: it is the midpoint of the concentration-response curve. Read a low EC50 as higher potency in that assay. As a reminder, the IC50 is the concentration at which inhibition is half-maximal. Read a low IC50 as higher potency. As to B3, the “IC50 of blockade of CCL1-induced β-arrestin recruitment” value with human CCR8 [2] turned out to be 1.52 µg/mL. Also, in the test with human CCR8 [3], the “EC50 … with 293F-hCCR8 target cells” value was found to be 0.0305 µg/mL. The half-maximal effective concentration (EC50) in the test with human CCR8 [4] came out at 0.136 µg/mL. The IC50 with human CCR8 [5] was determined as 0.064 µg/mL.

B4: 563E10E12_hzH1L1_VLPLL (antibody, human IgG1, kappa)
heavy: EVQLVESGGGLVQPGGSLKLSCAASGFNFNAYAMNWVRQASGKGLEWVGRIRSKSNNFATYYADSVTDRFTISRDDSKNTAYLQMNSLKTEDTAVYYCVRHGRRDLLYSMDFWGQGTTVTVSSASTKGPSVFPLAPSSKSTSGGTAALGCLVKDYFPEPVTVSWNSGALTSGVHTFPAVLQSSGLYSLSSVVTVPSSSLGTQTYICNVNHKPSNTKVDKKVEPKSCDKTHTCPPCPAPELVGGPSVFLLPPKPKDTLMISRTPEVTCVVVDVSHEDPEVKFNWYVDGVEVHNAKTKPPEEQYNSTLRVVSVLTVLHQDWLNGKEYKCKVSNKALPAPIEKTISKAKGQPREPQVYTLPPSRDELTKNQVSLTCLVKGFYPSDIAVEWESNGQPENNYKTTPLVLDSDGSFFLYSKLTVDKSRWQQGNVFSCSVMHEALHNHYTQKSLSLSPGK
light: DVVMTQSPLSLPVTPGEPASISCRSSKSLLHSNGITYLFWYLQKPGQSPQLLIYQMSNLASGVPDRFSGSGSGTDFTLKISRVEAEDVGVYYCAQSLELPLTFGGGTKVEIKRTVAAPSVFIFPPSDEQLKSGTASVVCLLNNFYPREAKVQWKVDNALQSGNSQESVTEQDSKDSTYSLSSTLTLSKADYEKHKVYACEVTHQGLSSPVTKSFNRGEC
Take B4: in the test with human CCR8 [1], the “EC50 … with 293F-hCCR8 target cells” value was determined as 0.0013 µg/mL.

B5: 563E10E12_hzH1L1_DE (antibody, human IgG1, kappa)
heavy: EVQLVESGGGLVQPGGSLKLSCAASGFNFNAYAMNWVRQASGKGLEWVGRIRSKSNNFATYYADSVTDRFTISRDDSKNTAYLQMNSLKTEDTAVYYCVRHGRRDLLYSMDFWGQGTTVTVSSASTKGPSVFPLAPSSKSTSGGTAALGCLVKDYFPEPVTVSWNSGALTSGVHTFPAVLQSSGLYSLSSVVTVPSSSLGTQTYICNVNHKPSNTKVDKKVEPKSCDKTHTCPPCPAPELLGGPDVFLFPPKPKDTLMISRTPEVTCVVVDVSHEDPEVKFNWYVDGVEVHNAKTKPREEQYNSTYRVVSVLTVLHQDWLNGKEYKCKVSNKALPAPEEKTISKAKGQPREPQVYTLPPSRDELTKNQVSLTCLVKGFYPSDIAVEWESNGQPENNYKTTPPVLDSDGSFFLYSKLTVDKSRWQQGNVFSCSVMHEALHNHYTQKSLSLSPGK
light: DVVMTQSPLSLPVTPGEPASISCRSSKSLLHSNGITYLFWYLQKPGQSPQLLIYQMSNLASGVPDRFSGSGSGTDFTLKISRVEAEDVGVYYCAQSLELPLTFGGGTKVEIKRTVAAPSVFIFPPSDEQLKSGTASVVCLLNNFYPREAKVQWKVDNALQSGNSQESVTEQDSKDSTYSLSSTLTLSKADYEKHKVYACEVTHQGLSSPVTKSFNRGEC
With B5, in the test with human CCR8 [1], the “EC50 … with 293F-hCCR8 target cells” value is 0.0006 µg/mL.

B6: 563E10E12_hzH4L1_hIgG1 (antibody)
heavy: not shown
light: DVVMTQSPLSLPVTPGEPASISCRSSKSLLHSNGITYLFWYLQKPGQSPQLLIYQMSNLASGVPDRFSGSGSGTDFTLKISRVEAEDVGVYYCAQSLELPLTFGGGTKVEIKRTVAAPSVFIFPPSDEQLKSGTASVVCLLNNFYPREAKVQWKVDNALQSGNSQESVTEQDSKDSTYSLSSTLTLSKADYEKHKVYACEVTHQGLSSPVTKSFNRGEC
notes: Humanized, hIgG1/K
In the case of B6, the “IC50 of blockade of CCL1-induced β-arrestin recruitment” value with human CCR8 [2] amounted to 2.1 µg/mL. Further, in the test with human CCR8 [3], the “EC50 … with 293F-hCCR8 target cells” value was 0.0259 µg/mL. In the test with human CCR8 [4], this molecule yielded an EC50 of 0.116 µg/mL. Also, the concentration for half-maximal inhibition (IC50) with human CCR8 [5] came to 0.0458 µg/mL.

B7: 563E10E12_hzH5L1_hIgG1 (antibody)
heavy: not shown
light: DVVMTQSPLSLPVTPGEPASISCRSSKSLLHSNGITYLFWYLQKPGQSPQLLIYQMSNLASGVPDRFSGSGSGTDFTLKISRVEAEDVGVYYCAQSLELPLTFGGGTKVEIKRTVAAPSVFIFPPSDEQLKSGTASVVCLLNNFYPREAKVQWKVDNALQSGNSQESVTEQDSKDSTYSLSSTLTLSKADYEKHKVYACEVTHQGLSSPVTKSFNRGEC
notes: Humanized, hIgG1/K
For B7, the “IC50 of blockade of CCL1-induced β-arrestin recruitment” value in the test with human CCR8 [2] came to 1.38 µg/mL. In the test with human CCR8 [3], the “EC50 … with 293F-hCCR8 target cells” value was 0.0264 µg/mL. The molecule further yielded a 50% effective concentration (EC50) with human CCR8 [4] of 0.129 µg/mL. In the test with human CCR8 [5], this molecule gave an IC50 of 0.0878 µg/mL.

B8: 563E10E12_hzH5L0_hIgG1 (antibody)
heavy: not shown
light: DIVMTQSPLSLPVTPGEPASISCRSSKSLLHSNGITYLFWYLQKPGQSPQLLIYQMSNLASGVPDRFSGSGSGTDFTLKISRVEAEDVGVYYCAQSLELPLTFGGGTKVEIKRTVAAPSVFIFPPSDEQLKSGTASVVCLLNNFYPREAKVQWKVDNALQSGNSQESVTEQDSKDSTYSLSSTLTLSKADYEKHKVYACEVTHQGLSSPVTKSFNRGEC
notes: Humanized, hIgG1/K
Regarding B8, the “IC50 of blockade of CCL1-induced β-arrestin recruitment” value in the test with human CCR8 [2] is 1.7 µg/mL. The “EC50 … with 293F-hCCR8 target cells” value in the test with human CCR8 [3] was determined as 0.0355 µg/mL. In addition, the concentration giving a half-maximal response (EC50) with human CCR8 [4] stood at 0.13 µg/mL. For the same molecule, in the test with human CCR8 [5], the half-maximal inhibitory concentration (IC50) turned out to be 0.0851 µg/mL.

B9: 563E10E12_hzH3L1_hIgG1 (antibody)
heavy: not shown
light: DVVMTQSPLSLPVTPGEPASISCRSSKSLLHSNGITYLFWYLQKPGQSPQLLIYQMSNLASGVPDRFSGSGSGTDFTLKISRVEAEDVGVYYCAQSLELPLTFGGGTKVEIKRTVAAPSVFIFPPSDEQLKSGTASVVCLLNNFYPREAKVQWKVDNALQSGNSQESVTEQDSKDSTYSLSSTLTLSKADYEKHKVYACEVTHQGLSSPVTKSFNRGEC
notes: Humanized, hIgG1/K
Consider B9, for which the “IC50 of blockade of CCL1-induced β-arrestin recruitment” value in the test with human CCR8 [2] was 1.53 µg/mL. Besides, in the test with human CCR8 [3], the “EC50 … with 293F-hCCR8 target cells” value is 0.0261 µg/mL. In the test with human CCR8 [4], it took 0.114 µg/mL to reach a half-maximal effect (EC50). Also, the 50% inhibitory concentration (IC50) with human CCR8 [5] turned out to be 0.0732 µg/mL.

B10: 563E10E12_hzH4L0_hIgG1 (antibody)
heavy: not shown
light: DIVMTQSPLSLPVTPGEPASISCRSSKSLLHSNGITYLFWYLQKPGQSPQLLIYQMSNLASGVPDRFSGSGSGTDFTLKISRVEAEDVGVYYCAQSLELPLTFGGGTKVEIKRTVAAPSVFIFPPSDEQLKSGTASVVCLLNNFYPREAKVQWKVDNALQSGNSQESVTEQDSKDSTYSLSSTLTLSKADYEKHKVYACEVTHQGLSSPVTKSFNRGEC
notes: Humanized, hIgG1/K
As to B10, in the test with human CCR8 [2], the “IC50 of blockade of CCL1-induced β-arrestin recruitment” value was 1.49 µg/mL. Also, the “EC50 … with 293F-hCCR8 target cells” value in the test with human CCR8 [3] is 0.0388 µg/mL. In the test with human CCR8 [4], this molecule showed a half-maximal effective concentration (EC50) of 0.102 µg/mL. This molecule had an IC50 with human CCR8 [5] of 0.0544 µg/mL.
